In the supplement of paper PMC10567573:

B1: TRIM9 (parent)
chain: PRNSCITCPQCHRSLILDDRGLRG

Variants of: B1
Experiment: protein stability index of a GFP-peptide fusion (GPS, HEK-293T) (PSI 1-6); higher = more stable
Conditions: c terminus: a fixed tail appended
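Note: lentivirally expressed fusions sorted by FACS into six bins by GFP to DsRed ratio, PSI derived from sequencing read proportions per bin multiplied by bin number.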

| Variant | protein stability index |
| --- | --- |
| PRNSCITCPQMHRSLILDDRGLRG [C11M] | 1.97 |
| PRNSCITDPQCHRSLILDDRGLRG [C8D] | 2.24 |
| PRNSCITAPQCHRSLILDDRGLRG [C8A] | 2.84 |
| PRNSCITQPQCHRSLILDDRGLRG [C8Q] | 2.16 |
| PRNSCITGPQCHRSLILDDRGLRG [C8G] | 2.34 |
| PRNSCITKPQCHRSLILDDRGLRG [C8K] | 2.4 |
| PRNSCITTPQCHRSLILDDRGLRG [C8T] | 3.33 |
| PRNSCITVPQCHRSLILDDRGLRG [C8V] | 2.47 |
| PRNSCITYPQCHRSLILDDRGLRG [C8Y] | 2.54 |
| PRNSCITPPQCHRSLILDDRGLRG [C8P] | 3.14 |
| PRNSCITMPQCHRSLILDDRGLRG [C8M] | 2.62 |
| PRNSCITRPQCHRSLILDDRGLRG [C8R] | 2.47 |
| PRNSCITFPQCHRSLILDDRGLRG [C8F] | 1.57 |
| PRNSCITLPQCHRSLILDDRGLRG [C8L] | 2.35 |
| PRNSCITIPQCHRSLILDDRGLRG [C8I] | 2.38 |
| PRNSCITNPQCHRSLILDDRGLRG [C8N] | 2.6 |
| PRNSCITWPQCHRSLILDDRGLRG [C8W] | 2.89 |
| PRNSCITEPQCHRSLILDDRGLRG [C8E] | 3.18 |
| PRNSCITSPQCHRSLILDDRGLRG [C8S] | 3.15 |
| PRNSCITHPQCHRSLILDDRGLRG [C8H] | 2.29 |
| PRNSCITCPQCHRELILDDRGLRG [S14E] | 2.6 |
| PRNSCITCPQCHRYLILDDRGLRG [S14Y] | 2.66 |
| PRNSCITCPQCHRLLILDDRGLRG [S14L] | 2.11 |
| PRNSCITCPQCHRALILDDRGLRG [S14A] | 2.18 |

| Variant | protein stability index |
| --- | --- |
| PRNSCITCPQCHRHLILDDRGLRG [S14H] | 2.25 |
| PRNSCITCPQCHRRLILDDRGLRG [S14R] | 2.4 |
| PRNSCITCPQCHRMLILDDRGLRG [S14M] | 2.27 |
| PRNSCITCPQCHRWLILDDRGLRG [S14W] | 1.68 |
| PRNSCITCPQCHRKLILDDRGLRG [S14K] | 2.7 |
| PRNSCITCPQCHRTLILDDRGLRG [S14T] | 2.71 |
| PRNSCITCPQCHRGLILDDRGLRG [S14G] | 1.26 |
| PRNSCITCPQCHRNLILDDRGLRG [S14N] | 1.9 |
| PRNSCITCPQCHRILILDDRGLRG [S14I] | 2.93 |
| PRNSCITCPQCHRVLILDDRGLRG [S14V] | 3.13 |
| PRNSCITCPQCHRQLILDDRGLRG [S14Q] | 2 |
| PRNSCITCPQCHRPLILDDRGLRG [S14P] | 2.52 |
| PRNSCITCPQCHRDLILDDRGLRG [S14D] | 2.4 |
| PRNSCITCPQCHRCLILDDRGLRG [S14C] | 2.92 |
| PRNSCITCPQCHRFLILDDRGLRG [S14F] | 1.91 |
| PRNSCITCPQCHRSKILDDRGLRG [L15K] | 2.12 |
| PRNSCITCPQCHRSWILDDRGLRG [L15W] | 2.48 |
| PRNSCITCPQCHRSHILDDRGLRG [L15H] | 2.45 |
| PRNSCITCPQCHRSEILDDRGLRG [L15E] | 2.19 |
| PRNSCITCPQCHRSNILDDRGLRG [L15N] | 1.98 |
| PRNSCITCPQCHRSMILDDRGLRG [L15M] | 2.61 |
| PRNSCITCPQCHRSCILDDRGLRG [L15C] | 1.95 |
| PRNSCITCPQCHRSQILDDRGLRG [L15Q] | 2.79 |
| PRNSCITCPQCHRSPILDDRGLRG [L15P] | 2.77 |

| Variant | protein stability index |
| --- | --- |
| PRNSCITCPQCHRSDILDDRGLRG [L15D] | 2.51 |
| PRNSCITCPQCHRSGILDDRGLRG [L15G] | 1.64 |
| PRNSCITCPQCHRSVILDDRGLRG [L15V] | 2.24 |
| PRNSCITCPQCHRSAILDDRGLRG [L15A] | 1.92 |
| PRNSCITCPQCHRSSILDDRGLRG [L15S] | 2.19 |
| PRNSCITCPQCHRSYILDDRGLRG [L15Y] | 2.79 |
| PRNSCITCPQCHRSIILDDRGLRG [L15I] | 1.68 |
| PRNSCITCPQCHRSRILDDRGLRG [L15R] | 2.13 |
| PRNSCITCPQCHRSTILDDRGLRG [L15T] | 2.59 |
| PRNSCITCPQCHRSFILDDRGLRG [L15F] | 3.08 |
| PRNSCIGCPQCHRSLILDDRGLRG [T7G] | 2.4 |
| PRNSCISCPQCHRSLILDDRGLRG [T7S] | 2.48 |
| PRNSCIICPQCHRSLILDDRGLRG [T7I] | 2.16 |
| PRNSCIRCPQCHRSLILDDRGLRG [T7R] | 1.98 |
| PRNSCIVCPQCHRSLILDDRGLRG [T7V] | 3.1 |
| PRNSCIWCPQCHRSLILDDRGLRG [T7W] | 2 |
| PRNSCIQCPQCHRSLILDDRGLRG [T7Q] | 2.38 |
| PRNSCIFCPQCHRSLILDDRGLRG [T7F] | 1.84 |
| PRNSCIPCPQCHRSLILDDRGLRG [T7P] | 1.72 |
| PRNSCIYCPQCHRSLILDDRGLRG [T7Y] | 2.33 |
| PRNSCIECPQCHRSLILDDRGLRG [T7E] | 1.99 |
| PRNSCILCPQCHRSLILDDRGLRG [T7L] | 1.99 |
| PRNSCIACPQCHRSLILDDRGLRG [T7A] | 2.42 |
| PRNSCICCPQCHRSLILDDRGLRG [T7C] | 2.05 |

| Variant | protein stability index |
| --- | --- |
| PRNSCIMCPQCHRSLILDDRGLRG [T7M] | 2.36 |
| PRNSCIDCPQCHRSLILDDRGLRG [T7D] | 1.81 |
| PRNSCINCPQCHRSLILDDRGLRG [T7N] | 2.04 |
| PRNSCIKCPQCHRSLILDDRGLRG [T7K] | 2.25 |
| PRNSCIHCPQCHRSLILDDRGLRG [T7H] | 3.11 |
| PRNSCITCNQCHRSLILDDRGLRG [P9N] | 1.54 |
| PRNSCITCRQCHRSLILDDRGLRG [P9R] | 2.58 |
| PRNSCITCSQCHRSLILDDRGLRG [P9S] | 2.16 |
| PRNSCITCWQCHRSLILDDRGLRG [P9W] | 3.5 |
| PRNSCITCGQCHRSLILDDRGLRG [P9G] | 1.72 |
| PRNSCITCDQCHRSLILDDRGLRG [P9D] | 2.05 |
| PRNSCITCKQCHRSLILDDRGLRG [P9K] | 2.18 |
| PRNSCITCCQCHRSLILDDRGLRG [P9C] | 2.45 |
| PRNSCITCAQCHRSLILDDRGLRG [P9A] | 2.5 |
| PRNSCITCLQCHRSLILDDRGLRG [P9L] | 2.12 |
| PRNSCITCYQCHRSLILDDRGLRG [P9Y] | 3.11 |
| PRNSCITCMQCHRSLILDDRGLRG [P9M] | 1.45 |
| PRNSCITCTQCHRSLILDDRGLRG [P9T] | 1.83 |
| PRNSCITCVQCHRSLILDDRGLRG [P9V] | 2.67 |
| PRNSCITCEQCHRSLILDDRGLRG [P9E] | 1 |
| PRNSCITCFQCHRSLILDDRGLRG [P9F] | 1.54 |
| PRNSCITCHQCHRSLILDDRGLRG [P9H] | 1.51 |
